Data taken from patent publication US20030215899A1, “Reversible oxidation of protein tyrosine phosphatases” (CEPTYR, Inc., priority 2002, published 2003).
“Also recorded” adds a separate entry of the source.

T1: 70 kDa PTP (SHP-2) (Rattus norvegicus, UniProt P41499)
T1 construct: endogenous in cells; host or cells: Rat-1 fibroblasts
T1 sequence (P41499 1-593): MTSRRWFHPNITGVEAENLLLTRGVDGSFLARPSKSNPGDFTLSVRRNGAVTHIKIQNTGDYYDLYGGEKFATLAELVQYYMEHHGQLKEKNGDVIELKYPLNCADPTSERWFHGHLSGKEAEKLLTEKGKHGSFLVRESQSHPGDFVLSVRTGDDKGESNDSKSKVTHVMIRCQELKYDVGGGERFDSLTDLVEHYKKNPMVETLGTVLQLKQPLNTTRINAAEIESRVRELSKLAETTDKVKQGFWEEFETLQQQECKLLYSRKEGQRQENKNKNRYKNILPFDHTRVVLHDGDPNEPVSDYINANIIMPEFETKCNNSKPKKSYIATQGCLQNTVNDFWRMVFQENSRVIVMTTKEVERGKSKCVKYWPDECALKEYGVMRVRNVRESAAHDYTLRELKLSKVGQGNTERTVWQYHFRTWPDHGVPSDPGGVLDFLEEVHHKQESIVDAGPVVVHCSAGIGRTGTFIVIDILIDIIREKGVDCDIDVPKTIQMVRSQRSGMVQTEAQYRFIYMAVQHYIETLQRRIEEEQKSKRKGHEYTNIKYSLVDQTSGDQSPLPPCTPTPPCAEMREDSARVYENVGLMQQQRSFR


How the values were obtained:
[1] = system: intracellular ROS in Rat-1 cells; assay: ROS-induced DCF fluorescence (microscopy, flow cytometry); assay type: cell-based; conditions: 20 μM CM-H2DCFDA, growth factor 50 ng/ml, 10 mins
Experimental: The effects of H2O2 and t-BHP on inactivation of PTPs and activation of MAPK signaling pathways were next compared in a cellular context. Intracellular ROS were measured using 2′,7′-dichlorofluorescein diacetate (H2DCFDA) and 5-(and-6)-chloromethyl-2′,7′-dichlorodihydrofluorescein diacetate (CM-H2DCFDA) (all fluorescent ROS indicators from Molecular Probes, Eugene, Oreg.) either by fluorescence microscopy, using a Zeiss Axiovert 405M inverted microscope equipped with a fluorescence attachment and digital camera, or by cell sorting, using a FACSCalibur System ([…].), according to the manufacturer's recommendations. […] Images of ROS-induced DCF fluorescence are shown at magnification 400× (FIG. 3B upper panel). Cells (1×10^5) that underwent the same treatment as above were harvested and resuspended in Hanks' solution, then immediately subjected to flow cytometric analysis to measure ROS-induced DCF fluorescence. The basal peak indicates background fluorescence, whereas the rightward shifted peak indicates ROS-induced DCF fluorescence (FIG. 3B, lower panels). […]
Rat-1 cells were incubated with 20 μM CM-H2DCFDA in the dark for 20 mins, then exposed to peptide growth factors (50 ng/ml) for an additional 10 mins. Images of ROS-induced DCF fluorescence are shown at 50× magnification. […]

[2] = target: T1, 70 kDa PTP (SHP-2); assay: modified in-gel PTP assay, growth factor stimulated Rat-1 cells; assay type: cell-based
Description: To determine whether ROS stimulated intracellular tyrosine phosphorylation through the oxidation and inhibition of cellular PTPs, a modified in-gel PTP activity assay was devised, as follows: As substrate, poly (4:1) Glu-Tyr (Sigma) was labeled with [γ-^32P]-ATP using the GST-FER fusion PTK, as described previously (Shen et al., 1998 J. Biol. Chem. 273:6474-81). The labeled substrates were used within three weeks to limit the variation of its specific activity from experiment to experiment. The lysis buffer (25 mM CH3COONa, 1% NP-40, 150 mM NaCl, 10% glycerol, pH 5.5) was degassed at 4° C. for overnight, before catalase and superoxide dismutase (both 100 μg/ml), protease inhibitors and 10 mM iodoacetic acid (IAA) were added. Following stimulation, cells were lysed under anaerobic conditions in an argon chamber. Lysates (25 μg) were processed as described herein and an “in-gel” phosphatase assay (Burridge and Nelson, 1995) was conducted using SDS-PAGE gels containing a radioactively-labeled substrate (1.5×10^6 cpm/20 ml gel solution, approximately 2 μM p-Tyr).
Cells were triggered with the appropriate stimulus and harvested under anaerobic conditions in lysis buffer containing IAA. Those PTPs that had not encountered ROS in the cell became irreversibly inactivated by alkylation of their active site Cys with IAA. However, in contrast, any PTPs in which the active site Cys had been oxidized in response to the stimulus were resistant to alkylation. For the “in-gel” phosphatase assay, a 10% SDS-PAGE gel was cast containing a radioactively-labeled substrate. An aliquot of cell lysate was subjected to SDS-PAGE and proteins in the gel were sequentially denatured, then renatured in the presence of reducing reagents. […] The reaction was then terminated by fixing, staining and destaining the gel. Finally the gel was dried and exposed to film. […]
As described above, treatment of Rat-1 cells with H2O2 led to inactivation of multiple PTPs (FIGS. 2-3). […] Lysates of PDGF-stimulated Rat-1 cells were then analyzed using the modified in-gel PTP activity assay described above. […]

[3] = system: MAPK; assay: anti-phospho-MAPK / anti-MAPK immunoblot; assay type: cell-based, Rat; conditions: peptide growth factors, Rat-1 cells
Experimental: For immunoprecipitation, cells were rinsed with ice-cold PBS, then lysed in ice-cold 20 mM Hepes (pH 7.5), 1% NP-40, 150 mM NaCl, 10% glycerol, 200 μM […] and protease inhibitors (25 μg/ml of aprotinin and leupeptin). […] The anti-pTyr antibody G104 was described previously (Garton et al., 1997 Oncogene 15, 877-885). Anti-PDGFRββ antibody (Ab-X) was a gift from Dr. Daniel DiMaio at Yale University (Irusta and DiMaio, 1998 EMBO J. 17, 6912-6923). Anti-human G-CSF receptor (G-CSFR) antibody was provided by Dr. Toshio Hirano at Osaka University, Japan (Fukada et al., 1996 Immunity 5, 449-460). Lysate (400 μg) was incubated with 5 μg of antibody conjugated to protein A/G-Sepharose (Amersham Pharmacia, Arlington Heights, Ill.) for 2 hours at 4° C. For immunoblotting, aliquots of total lysates (30 μg per sample) or immunoprecipitates were subjected to SDS-PAGE and transferred to nitrocellulose filters, which were incubated with appropriate primary and secondary antibodies and the specific signals were visualized by the ECL detection system (Amersham Pharmacia).

Molecule | production of intracellular ROS [1] | oxidation and inhibition of SHP-2 ([2]; peptide growth factors, lysis with 10 mM IAA) | activation of MAPK [3] | oxidation and inactivation of SHP-2 ([2]; Rat-1 cells transfected with WT G-CSFR/PDGFR chimeric receptor) | oxidation of SHP-2 ([2]; Rat-1 cells transfected with Y1009F mutant G-CSFR/PDGFR chimeric receptor)
EGF: peptide growth factor (protein, UniProt P01133 23-1207, looked up, Pro-epidermal growth factor) Pro-epidermal growth factor: PQHWSCPEGTLAGNGNSTCVGPAPFLIFSHGNSIFRIDTEGTNYEQLVVDAGVSVIMDFHYNEKRIYWVDLERQLLQRVFLNGSRQERVCNIEKNVSGMAINWINEEVIWSNQQEGIITVTDMKGNNSHILLSALKYPANVAVDPVERFIFWSSEVAGSLYRADLDGVGVKALLETSEKITAVSLDVLDKRLFWIQYNREGSNSLICSCDYDGGSVHISKHPTQHNLFAMSLFGDRIFYSTWKMKTIWIANKHTGKDMVRINLHSSFVPLGELKVVHPLAQPKAEDDTWEPEQKLCKLRKGNCSSTVCGQDLQSHLCMCAEGYALSRDRKYCEDVNECAFWNHGCTLGCKNTPGSYYCTCPVGFVLLPDGKRCHQLVSCPRNVSECSHDCVLTSEGPLCFCPEGSVLERDGKTCSGCSSPDNGGCSQLCVPLSPVSWECDCFPGYDLQLDEKSCAASGPQPFLLFANSQDIRHMHFDGTDYGTLLSQQMGMVYALDHDPVENKIYFAHTALKWIERANMDGSQRERLIEEGVDVPEGLAVDWIGRRFYWTDRGKSLIGRSDLNGKRSKIITKENISQPRGIAVHPMAKRLFWTDTGINPRIESSSLQGLGRLVIASSDLIWPSGITIDFLTDKLYWCDAKQSVIEMANLDGSKRRRLTQNDVGHPFAVAVFEDYVWFSDWAMPSVMRVNKRTGKDRVRLQGSMLKPSSLVVVHPLAKPGADPCLYQNGGCEHICKKRLGTAWCSCREGFMKASDGKTCLALDGHQLLAGGEVDLKNQVTPLDILSKTRVSEDNITESQHMLVAEIMVSDQDDCAPVGCSMYARCISEGEDATCQCLKGFAGDGKLCSDIDECEMGVPVCPPASSKCINTEGGYVCRCSEGYQGDGIHCLDIDECQLGEHSCGENASCTNTEGGYTCMCAGRLSEPGLICPDSTPPPHLREDDHHYSVRNSDSECPLSHDGYCLHDGVCMYIEALDKYACNCVVGYIGERCQYRDLKWWELRHAGHGQQQKVIVVAVCVVVLVMLLLLSLWGAHYYRTQKLLSKNPKNPYEESSRDVRSRRPADTEDGMSSCPQPWFVVIKEHQDLKNGGQPVAGEDGQAADGSMQPTSWRQEPQLCGMGTEQGCWIPVSSDKGSCPQVMERSFHMPSYGTQTLEGGVEKPHSLLSANPLWQQRALDPPHQMELTQ | ROS production was not detected | not following exposure of these cells to EGF or FGF; also recorded: not by EGF or FGF | activated MAPK to a similar extent |  | 
G-CSF: ligand of the G-CSFR/PDGFR chimeric receptors (protein, UniProt P09919 31-207, looked up) Granulocyte …: TPLGPASSLPQSFLLKCLEQVRKIQGDGAALQEKLVSECATYKLCHPEELVLLGHSLGIPWAPLSSCPSQALQLAGCLSQLHSGLFLYQGLLQALEGISPELGPTLDTLQLDVADFATTIWQQMEELGMAPALQPTQGAMPAFASAFQRRAGGVLVASHLQSFLEVSYRVLRHLAQP |  |  |  | rapid oxidation and inactivation of SHP-2 | did not induce oxidation of SHP-2
